# Source: patent US20210388087A1 (Chugai, published 2021)
# Where a chain is given by its changes, count along the chain named.
# B1: GLS3000 F55G (antibody, name in Kabat numbering, V domains shown)
# VH: QVQLVESGGGVVQPGRSLRLSCAASGFTFSNAWMHWVRQAPGKGLEWVAQIKAKSNNYATYYAESVKGRFTISRDDSKNSLYLQMNSLKTEDTAVYYCRYVHYGAYYGVDAWGQGTTVTVSS
# VL: DIVMTQSPLSLPVTPGEPASISCRSSQSLVHSNRNTYLHWYQQKPGQAPRLLIYKVSNRGSGVPDRFSGSGSGTDFTLKISRVEAEDVGVYYCGQGTQVPYTFGQGTKLEIK
# notes: one-arm IgG as m2
# B2: GLS3000 G91T (antibody, name in Kabat numbering, V domains shown)
# VH: B1 VH
# VL: B1 VL with G60F, G96T
# notes: one-arm IgG as m2
# B3: GLS3000 F55I (antibody, name in Kabat numbering, V domains shown)
# VH: B1 VH
# VL: B1 VL with G60I
# notes: one-arm IgG as m2
# B4: GLS3000 H27dL (antibody, name in Kabat numbering, V domains shown)
# VH: B1 VH
# VL: B1 VL with H31L, G60F
# notes: one-arm IgG as m2
# B5: GLS3000 G89Q (antibody, name in Kabat numbering, V domains shown)
# VH: B1 VH
# VL: B1 VL with G60F, G94Q
# notes: one-arm IgG as m2
# B6: GLS3000 F55W (antibody, name in Kabat numbering, V domains shown)
# VH: B1 VH
# VL: B1 VL with G60W
# notes: one-arm IgG as m2
# B7: GLS3000 G89Y (antibody, name in Kabat numbering, V domains shown)
# VH: B1 VH
# VL: B1 VL with G60F, G94Y
# notes: one-arm IgG as m2
# B8: GLS3000 G91S (antibody, name in Kabat numbering, V domains shown)
# VH: B1 VH
# VL: B1 VL with G60F, G96S
# notes: one-arm IgG as m2
# B9: GLS3000 G89P (antibody, name in Kabat numbering, V domains shown)
# VH: B1 VH
# VL: B1 VL with G60F, G94P
# notes: one-arm IgG as m2
# B10: GLS3000 G89E (antibody, name in Kabat numbering, V domains shown)
# VH: B1 VH
# VL: B1 VL with G60F, G94E
# notes: one-arm IgG as m2
# B11: GLS3000 G89N (antibody, name in Kabat numbering, V domains shown)
# VH: B1 VH
# VL: B1 VL with G60F, G94N
# notes: one-arm IgG as m2
# B12: GLS3000 H27dG (antibody, name in Kabat numbering, V domains shown)
# VH: B1 VH
# VL: B1 VL with H31G, G60F
# notes: one-arm IgG as m2
# B13: GLS3000 F55Y (antibody, name in Kabat numbering, V domains shown)
# VH: B1 VH
# VL: B1 VL with G60Y
# notes: one-arm IgG as m2
# B14: GLS3000 G89T (antibody, name in Kabat numbering, V domains shown)
# VH: B1 VH
# VL: B1 VL with G60F, G94T
# notes: one-arm IgG as m2
# B15: GLS3000 G89M (antibody, name in Kabat numbering, V domains shown)
# VH: B1 VH
# VL: B1 VL with G60F, G94M
# notes: one-arm IgG as m2
# B16: GLS3000 F55Q (antibody, name in Kabat numbering, V domains shown)
# VH: B1 VH
# VL: B1 VL with G60Q
# notes: one-arm IgG as m2
# B17: GLS3000 G91D (antibody, name in Kabat numbering, V domains shown)
# VH: B1 VH
# VL: B1 VL with G60F, G96D
# notes: one-arm IgG as m2
# B18: GLS3000 F55P (antibody, name in Kabat numbering, V domains shown)
# VH: B1 VH
# VL: B1 VL with G60P
# notes: one-arm IgG as m2
# B19: GLS3000 G89L (antibody, name in Kabat numbering, V domains shown)
# VH: B1 VH
# VL: B1 VL with G60F, G94L
# notes: one-arm IgG as m2
# B20: GLS3000 F55L (antibody, name in Kabat numbering, V domains shown)
# VH: B1 VH
# VL: B1 VL with G60L
# notes: one-arm IgG as m2
# B21: GLS3000 F55M (antibody, name in Kabat numbering, V domains shown)
# VH: B1 VH
# VL: B1 VL with G60M
# notes: one-arm IgG as m2
# B22: GLS3000 G89F (antibody, name in Kabat numbering, V domains shown)
# VH: B1 VH
# VL: B1 VL with G60F, G94F
# notes: one-arm IgG as m2
# B23: GLS3000 G91P (antibody, name in Kabat numbering, V domains shown)
# VH: B1 VH
# VL: B1 VL with G60F, G96P
# notes: one-arm IgG as m2
# B24: GLS3000 G89I (antibody, name in Kabat numbering, V domains shown)
# VH: B1 VH
# VL: B1 VL with G60F, G94I
# notes: one-arm IgG as m2
# B25: GLS3000 G89A (antibody, name in Kabat numbering, V domains shown)
# VH: B1 VH
# VL: B1 VL with G60F, G94A
# notes: one-arm IgG as m2
# B26: GLS3000 H27dI (antibody, name in Kabat numbering, V domains shown)
# VH: B1 VH
# VL: B1 VL with H31I, G60F
# notes: one-arm IgG as m2
# B27: GLS3000 G89R (antibody, name in Kabat numbering, V domains shown)
# VH: B1 VH
# VL: B1 VL with G60F, G94R
# notes: one-arm IgG as m2
# B28: GLS3000 F55H (antibody, name in Kabat numbering, V domains shown)
# VH: B1 VH
# VL: B1 VL with G60H
# notes: one-arm IgG as m2
# B29: GLS3000 G91E (antibody, name in Kabat numbering, V domains shown)
# VH: B1 VH
# VL: B1 VL with G60F, G96E
# notes: one-arm IgG as m2
# B30: GLS3000 G89K (antibody, name in Kabat numbering, V domains shown)
# VH: B1 VH
# VL: B1 VL with G60F, G94K
# notes: one-arm IgG as m2
# B31: GLS3000 G91Y (antibody, name in Kabat numbering, V domains shown)
# VH: B1 VH
# VL: B1 VL with G60F, G96Y
# notes: one-arm IgG as m2
# B32: GLS3000 F55V (antibody, name in Kabat numbering, V domains shown)
# VH: B1 VH
# VL: B1 VL with G60V
# notes: one-arm IgG as m2
# B33: GLS3000 G89D (antibody, name in Kabat numbering, V domains shown)
# VH: B1 VH
# VL: B1 VL with G60F, G94D
# notes: one-arm IgG as m2
# B34: GLS3000 H27dE (antibody, name in Kabat numbering, V domains shown)
# VH: B1 VH
# VL: B1 VL with H31E, G60F
# notes: one-arm IgG as m2
# B35: GLS3000 F55K (antibody, name in Kabat numbering, V domains shown)
# VH: B1 VH
# VL: B1 VL with G60K
# notes: one-arm IgG as m2
# B36: GLS3000 F55R (antibody, name in Kabat numbering, V domains shown)
# VH: B1 VH
# VL: B1 VL with G60R
# notes: one-arm IgG as m2
# B37: GLS3000 G89V (antibody, name in Kabat numbering, V domains shown)
# VH: B1 VH
# VL: B1 VL with G60F, G94V
# notes: one-arm IgG as m2
# B38: GLS3000 F55S (antibody, name in Kabat numbering, V domains shown)
# VH: B1 VH
# VL: B1 VL with G60S
# notes: one-arm IgG as m2
# B39: GLS3000 F55N (antibody, name in Kabat numbering, V domains shown)
# VH: B1 VH
# VL: B1 VL with G60N
# notes: one-arm IgG as m2
# B40: GLS3000 H27dK (antibody, name in Kabat numbering, V domains shown)
# VH: B1 VH
# VL: B1 VL with H31K, G60F
# notes: one-arm IgG as m2
# B41: GLS3000 F55T (antibody, name in Kabat numbering, V domains shown)
# VH: B1 VH
# VL: B1 VL with G60T
# notes: one-arm IgG as m2
# B42: GLS3000 H27dD (antibody, name in Kabat numbering, V domains shown)
# VH: B1 VH
# VL: B1 VL with H31D, G60F
# notes: one-arm IgG as m2
# B43: GLS3000 G89W (antibody, name in Kabat numbering, V domains shown)
# VH: B1 VH
# VL: B1 VL with G60F, G94W
# notes: one-arm IgG as m2
# B44: GLS3000 G91A (antibody, name in Kabat numbering, V domains shown)
# VH: B1 VH
# VL: B1 VL with G60F, G96A
# notes: one-arm IgG as m2
# B45: GLS3000 H27dF (antibody, name in Kabat numbering, V domains shown)
# VH: B1 VH
# VL: B1 VL with H31F, G60F
# notes: one-arm IgG as m2
# B46: GLS3000 G89H (antibody, name in Kabat numbering, V domains shown)
# VH: B1 VH
# VL: B1 VL with G60F, G94H
# notes: one-arm IgG as m2
# Target: T1, CD3 epsilon homodimer protein (UniProt P07766 23-126)
# T1 construct: also called CD3 (CD3 epsilon)
# Experiment: SPR Biacore T200, CD3e homodimer on chip, vs unaltered GLS3000 antibody
# Method: An appropriate amount of CD3 epsilon homodimer protein was immobilized onto Sensor chip CM4 (GE Healthcare Japan Corp.) by the amine coupling method. Then, the antibody having an appropriate concentration was injected thereto as an analyte and allowed to interact with the CD3 epsilon homodimer protein on the sensor chip. Then, the sensor chip was regenerated by the injection of 10 mmol/L glycine-HCl (pH 1.5). The assay was conducted at 25 degrees C., and HBS-EP+(GE Healthcare Japan Corp.) was used as a running buffer. […] Each parameter was calculated using Biacore T200 Evaluation Software (GE Healthcare Japan Corp.).
# T1 sequence (P07766 23-126): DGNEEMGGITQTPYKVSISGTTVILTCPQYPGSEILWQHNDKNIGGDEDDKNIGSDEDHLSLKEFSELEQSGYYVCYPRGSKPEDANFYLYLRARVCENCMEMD
row,Binder,ratio of amounts bound (Z=Y/X)
1,B1,1.31
2,B2,0.26
3,B3,0.82
4,B4,0.3
5,B5,0.38
6,B6,0.69
7,B7,1.19
8,B8,0.26
9,B9,0.35
10,B10,0.26
11,B11,0.8
12,B12,0.3
13,B13,0.92
14,B14,1.03
15,B15,0.52
16,B16,0.91
17,B17,0.16
18,B18,1.16
19,B19,0.94
20,B20,0.76
21,B21,0.8
22,B22,1.09
23,B23,0.27

row,Binder,ratio of amounts bound (Z=Y/X)
1,B24,1.07
2,B25,1.13
3,B26,0.26
4,B27,0.19
5,B28,0.94
6,B29,0.16
7,B30,0.4
8,B31,0.17
9,B32,0.71
10,B33,0.33
11,B34,0.23
12,B35,1.33
13,B36,1.31
14,B37,1.63
15,B38,0.69
16,B39,0.98
17,B40,0.29
18,B41,0.41
19,B42,0.22
20,B43,0.5
21,B44,0.27
22,B45,0.63
23,B46,0.7
